# Experiments:
# FLAG-p53 = FLAG-p53 (UniProt P04637 1-393); experiment: pull-down
# p53 wild type = p53 wild type (UniProt P04637 1-393); experiment: pull-down
# Sequence of p53 wild type (P04637 whole entry): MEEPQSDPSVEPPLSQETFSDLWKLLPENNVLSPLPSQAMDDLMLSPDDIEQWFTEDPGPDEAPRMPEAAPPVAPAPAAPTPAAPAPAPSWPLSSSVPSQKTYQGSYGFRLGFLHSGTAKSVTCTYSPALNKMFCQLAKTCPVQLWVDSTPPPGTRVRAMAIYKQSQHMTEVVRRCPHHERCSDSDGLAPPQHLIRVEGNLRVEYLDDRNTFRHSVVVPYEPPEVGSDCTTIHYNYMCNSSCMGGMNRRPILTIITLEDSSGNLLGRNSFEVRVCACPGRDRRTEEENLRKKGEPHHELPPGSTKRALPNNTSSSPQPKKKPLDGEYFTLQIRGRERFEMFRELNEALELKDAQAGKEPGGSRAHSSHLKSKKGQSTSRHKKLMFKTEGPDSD
# Sequence of FLAG-p53 (P04637 whole entry): as above
binder,measurement,setting,value
biotinylated p53-site oligonucleotide (dsDNA) DNA 1: TCGAGAGGCATGTCTAGGCATGTCTC DNA 2: GAGACATGCCTAGACATGCCTCTCGA,binding result,FLAG-p53,binds
same,binding result,p53 wild type,binds

# From publication PMC7398576
